Measured values reported in the supplement of paper PMC10567573.

B1: ATL3 (parent)
chain: YGLQGGMAFLDKRLQVKEHQHEEI

Variants of: B1
Experiment: protein stability index of a GFP-peptide fusion (GPS, HEK-293T) (PSI 1-6); higher = more stable
Conditions: c terminus: a fixed tail appended
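Further: lentivirally expressed fusions sorted by FACS into six bins by GFP to DsRed ratio, PSI derived from sequencing read proportions per bin multiplied by bin number.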

Protein stability index, by site and new letter:
Y1: N 4.53 | P 4.22 | Q 4.79 | R 4.07 | S 4.46 | T 4.08 | V 3.92 | W 2.45
G2: A 2.28 | C 1.82 | D 3.52 | E 3.28 | F 2.31 | H 2.3 | I 1.66 | K 3.22 | L 1.93 | M 2.39 | N 2.26 | P 2.63 | Q 2.11 | R 3.49 | S 2.96 | T 2.05 | W 2.37 | Y 2.71
L3: A 1.92 | C 2.03 | D 2.96 | E 2.37 | F 2.76 | G 2.46 | H 2.81 | I 2.2 | K 2.93 | M 2.31 | N 2.45 | P 2.55 | Q 2.73 | R 3.69 | T 2.86 | W 3.64 | Y 2.99
Q4: A 3.19 | C 3.19 | D 2.18 | E 1.92 | F 2.32 | G 1.98 | H 3.46 | I 2.86 | K 3.89 | L 1.75 | M 2.83 | N 3.07 | P 2.37 | R 2.67 | S 2.16 | T 1.89 | V 2.25 | W 2.66
G5: A 1.74 | C 1.92 | D 2.34 | E 3.15 | F 1.82 | H 2.5 | I 2.04 | K 2.4 | L 2.39 | M 2.1 | N 2.44 | P 2.65 | Q 2.73 | R 2.39 | S 2.25 | T 3.18 | V 2.28 | Y 2.66
G6: A 3.1 | C 2.21 | D 2.31 | E 2.41 | H 1.63 | I 2.54 | K 2.46 | L 3.04 | M 2.26 | N 2.32 | P 2.65 | Q 2.95 | R 2.85 | S 2.13 | T 1.73 | V 2.03 | W 1.97 | Y 2.34
M7: A 1.38 | C 2.48 | D 2.16 | E 3.23 | F 3.3 | G 2.02 | H 1.75 | I 2.28 | K 3.76 | L 2.66 | N 2.23 | P 2.18 | Q 1.03 | R 2.24 | S 2.05 | T 1.7 | V 2.52 | W 1.47 | Y 1.93
A8: C 2 | D 3.79 | E 2.91 | F 3.46 | G 2.81 | H 1.4 | I 2.71 | K 1.71 | L 2.67 | N 2.33 | P 2.93 | Q 2.02 | R 1.74 | S 2.09 | T 3.38 | V 2.42 | W 3.35 | Y 2.68
F9: A 4.3 | C 4.13 | D 4.88 | E 5 | G 4.45 | H 4.06 | I 3.82 | K 4.4 | L 3.84 | M 4.25 | N 4.51 | P 4.69 | Q 4.42 | R 3.79 | S 4.49 | T 4.58 | V 4.23 | W 2.26 | Y 1.91
L10: A 3.49 | C 3.07 | D 4.11 | E 3.82 | F 2.03 | G 1.89 | H 1.98 | K 1.62 | M 1.54 | N 2.05 | P 3.39 | Q 1.65 | T 2.35 | V 2.57
